Experimental data: PMC5405867 (Nature structural & molecular biology, 2017)
Changes are numbered by the printed parent chain. Names may count otherwise. Values belong to the binder of their own block, whether it stands above or below them.

What was measured:
[1] = biological target: T1, human USP18 (residues 16-372), tag removed (human, UniProt Q9UMW8 16-372); experiment: covalent adduct formation with an active-site probe
T1 sequence (looked up): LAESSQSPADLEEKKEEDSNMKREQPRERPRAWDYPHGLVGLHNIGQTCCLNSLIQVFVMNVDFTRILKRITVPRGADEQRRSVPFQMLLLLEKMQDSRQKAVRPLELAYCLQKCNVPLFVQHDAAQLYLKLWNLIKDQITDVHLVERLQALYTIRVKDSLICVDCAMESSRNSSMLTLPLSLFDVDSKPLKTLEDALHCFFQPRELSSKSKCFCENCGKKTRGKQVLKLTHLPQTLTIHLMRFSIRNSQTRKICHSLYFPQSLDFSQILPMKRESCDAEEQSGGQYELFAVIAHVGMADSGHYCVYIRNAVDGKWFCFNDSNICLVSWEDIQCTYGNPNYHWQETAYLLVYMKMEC

[2] = biological target: T2, murine USP18 catalytic core (residues 46-368), His6-tagged (mouse, UniProt Q9WTV6 46-368); experiment: SPR
T2 sequence (looked up): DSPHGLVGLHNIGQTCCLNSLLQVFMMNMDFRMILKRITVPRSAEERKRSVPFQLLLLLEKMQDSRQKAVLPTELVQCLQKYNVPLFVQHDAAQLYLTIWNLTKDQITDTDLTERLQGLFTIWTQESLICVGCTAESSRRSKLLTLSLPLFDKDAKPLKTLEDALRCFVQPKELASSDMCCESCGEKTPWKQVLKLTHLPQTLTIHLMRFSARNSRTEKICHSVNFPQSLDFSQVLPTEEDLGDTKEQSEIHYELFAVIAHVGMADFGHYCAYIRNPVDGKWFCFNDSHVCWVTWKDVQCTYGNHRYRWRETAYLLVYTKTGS

[3] = biological target: T3, murine USP18^IBB-2-USP7, His6-tagged (mouse, UniProt Q9WTV6 1-368, residues 256-263 (S-A-R-N-S-R-T-E) replaced by the corresponding residues …); experiment: cell-based or functional assay
T3 sequence (looked up): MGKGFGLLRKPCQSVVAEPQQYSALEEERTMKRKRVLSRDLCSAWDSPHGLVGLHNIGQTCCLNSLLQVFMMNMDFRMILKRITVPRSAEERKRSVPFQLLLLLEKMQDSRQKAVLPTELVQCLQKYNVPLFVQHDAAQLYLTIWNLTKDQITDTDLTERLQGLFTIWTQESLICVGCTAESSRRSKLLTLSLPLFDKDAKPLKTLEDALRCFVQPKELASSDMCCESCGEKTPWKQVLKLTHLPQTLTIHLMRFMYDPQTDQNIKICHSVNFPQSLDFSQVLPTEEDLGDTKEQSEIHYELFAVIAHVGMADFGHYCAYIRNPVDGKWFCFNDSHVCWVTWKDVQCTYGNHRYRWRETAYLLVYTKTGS

binding result [1]: binds
B1: mouse ISG15-PA (full-length ISG15 propargylamide probe, residues 1-154, C76S) (natural protein, UniProt Q64339 1-154, looked up)
chain: MAWDLKVKMLGGNDFLVSVTNSMTVSELKKQIAQKIGVPAFQQRLAHQTAVLQDGLTLSSLGLGPSSTVMLVVQNSSEPLSILVRNERGHSNIYEVFLTQTVDTLKKKVSQREQVHEDQFWLSFEGRPMEDKELLGEYGLKPQCTVIKHLRLRG
modifications: C-terminal propargylamide (PA)

Kd [2]: 1490 ± 30 nM | catalytic activity towards ISG15-FP, percent of wild type [3]: 65 % of wt activity
B2: mouse ISG15 (residues 1-155, C76S) (natural protein, UniProt Q64339 1-155, looked up)
chain: MAWDLKVKMLGGNDFLVSVTNSMTVSELKKQIAQKIGVPAFQQRLAHQTAVLQDGLTLSSLGLGPSSTVMLVVQNSSEPLSILVRNERGHSNIYEVFLTQTVDTLKKKVSQREQVHEDQFWLSFEGRPMEDKELLGEYGLKPQCTVIKHLRLRGG

stoichiometry N [2]: 0.4 ISG15 per immobilized USP18
B3: mouse ISG15-W121R (C76S) (natural protein, UniProt Q64339 1-155, looked up)
chain: B2 chain with W121R
